This test concerns the target GD03-S1(318-510)-C9 protein (SARS-CoV GD03 (GD03T0013), UniProt P59594 318-510). As to the kind of experiment: ELISA, serial dilutions of coated S1-(318-510)-C9 protein, 0.5 ug/ml IgG1.

B1: 11A IgG1 (antibody, V domains shown)
VH: EVQLVQSGAEVKKPGESLKISCKGSGYSFTSYWIGWVRQMPGKGLEWMGIINPDNSDTRFSPSLQGQVTISVDKSINTVYLQWGSLKASDTAMYYCARQGDYSGPSINYWGQGTLVTVSS
VL: QSVLTQPASVSGSPGQSITISCTGTSSDVGGYNYVSWYQQHPGKAPKLMIYDVSKRPSGIPERFSGSNSGNTATLTISGTQAMDEADYYCQAWDSNTYVFGTGTKVTVLV
As for B1, the binding result is listed as “binds”.

For the origin of these results see patent WO2007044695A2 (dated 2007).
